Among the data in article PMC10879016 are expression_or_secretion values, retold here.

Data set [1] is described as follows: anti-Myc Western of HEK293T medium, IgG-normalised. As to conditions: glycan lost; control: MMRN1 WT-Myc.
Data set [2] is described as follows: anti-Myc Western of medium, IgG-normalised. Particulars: glycan lost; control: WT HEK293T cells.

B1: multimerin-1 (MMRN1): T216A (protein)
parent chain: MKGARLFVLLSSLWSGGIGLNNSKHSWTIPEDGNSQKTMPSASVPPNKIQSLQILPTTRVMSAEIATTPEARTSEDSLLKSTLPPSETSAPAEGVRNQTLTSTEKAEGVVKLQNLTLPTNASIKFNPGAESVVLSNSTLKFLQSFARKSNEQATSLNTVGGTGGIGGVGGTGGVGNRAPRETYLSRGDSSSSQRTDYQKSNFETTRGKNWCAYVHTRLSPTVILDNQVTYVPGGKGPCGWTGGSCPQRSQKISNPVYRMQHKIVTSLDWRCCPGYSGPKCQLRAQEQQSLIHTNQAESHTAVGRGVAEQQQQQGCGDPEVMQKMTDQVNYQAMKLTLLQKKIDNISLTVNDVRNTYSSLEGKVSEDKSREFQSLLKGLKSKSINVLIRDIVREQFKIFQNDMQETVAQLFKTVSSLSEDLESTRQIIQKVNESVVSIAAQQKFVLVQENRPTLTDIVELRNHIVNVRQEMTLTCEKPIKELEVKQTHLEGALEQEHSRSILYYESLNKTLSKLKEVHEQLLSTEQVSDQKNAPAAESVSNNVTEYMSTLHENIKKQSLMMLQMFEDLHIQESKINNLTVSLEMEKESLRGECEDMLSKCRNDFKFQLKDTEENLHVLNQTLAEVLFPMDNKMDKMSEQLNDLTYDMEILQPLLEQGASLRQTMTYEQPKEAIVIRKKIENLTSAVNSLNFIIKELTKRHNLLRNEVQGRDDALERRINEYALEMEDGLNKTMTIINNAIDFIQDNYALKETLSTIKDNSEIHHKCTSDMETILTFIPQFHRLNDSIQTLVNDNQRYNFVLQVAKTLAGIPRDEKLNQSNFQKMYQMFNETTSQVRKYQQNMSHLEEKLLLTTKISKNFETRLQDIESKVTQTLIPYYISVKKGSVVTNERDQALQLQVLNSRFKALEAKSIHLSINFFSLNKTLHEVLTMCHNASTSVSELNATIPKWIKHSLPDIQLLQKGLTEFVEPIIQIKTQAALSNLTCCIDRSLPGSLANVVKSQKQVKSLPKKINALKKPTVNLTTVLIGRTQRNTDNIIYPEEYSSCSRHPCQNGGTCINGRTSFTCACRHPFTGDNCTIKLVEENALAPDFSKGSYRYAPMVAFFASHTYGMTIPGPILFNNLDVNYGASYTPRTGKFRIPYLGVYVFKYTIESFSAHISGFLVVDGIDKLAFESENINSEIHCDRVLTGDALLELNYGQEVWLRLAKGTIPAKFPPVTTFSGYLLYRT
As to B1, in data set [1], the expression_or_secretion entry is “decreases”.

B2: multimerin-1 (MMRN1): POFUT2 KO (protein)
parent chain: MKGARLFVLLSSLWSGGIGLNNSKHSWTIPEDGNSQKTMPSASVPPNKIQSLQILPTTRVMSAEIATTPEARTSEDSLLKSTLPPSETSAPAEGVRNQTLTSTEKAEGVVKLQNLTLPTNASIKFNPGAESVVLSNSTLKFLQSFARKSNEQATSLNTVGGTGGIGGVGGTGGVGNRAPRETYLSRGDSSSSQRTDYQKSNFETTRGKNWCAYVHTRLSPTVILDNQVTYVPGGKGPCGWTGGSCPQRSQKISNPVYRMQHKIVTSLDWRCCPGYSGPKCQLRAQEQQSLIHTNQAESHTAVGRGVAEQQQQQGCGDPEVMQKMTDQVNYQAMKLTLLQKKIDNISLTVNDVRNTYSSLEGKVSEDKSREFQSLLKGLKSKSINVLIRDIVREQFKIFQNDMQETVAQLFKTVSSLSEDLESTRQIIQKVNESVVSIAAQQKFVLVQENRPTLTDIVELRNHIVNVRQEMTLTCEKPIKELEVKQTHLEGALEQEHSRSILYYESLNKTLSKLKEVHEQLLSTEQVSDQKNAPAAESVSNNVTEYMSTLHENIKKQSLMMLQMFEDLHIQESKINNLTVSLEMEKESLRGECEDMLSKCRNDFKFQLKDTEENLHVLNQTLAEVLFPMDNKMDKMSEQLNDLTYDMEILQPLLEQGASLRQTMTYEQPKEAIVIRKKIENLTSAVNSLNFIIKELTKRHNLLRNEVQGRDDALERRINEYALEMEDGLNKTMTIINNAIDFIQDNYALKETLSTIKDNSEIHHKCTSDMETILTFIPQFHRLNDSIQTLVNDNQRYNFVLQVAKTLAGIPRDEKLNQSNFQKMYQMFNETTSQVRKYQQNMSHLEEKLLLTTKISKNFETRLQDIESKVTQTLIPYYISVKKGSVVTNERDQALQLQVLNSRFKALEAKSIHLSINFFSLNKTLHEVLTMCHNASTSVSELNATIPKWIKHSLPDIQLLQKGLTEFVEPIIQIKTQAALSNLTCCIDRSLPGSLANVVKSQKQVKSLPKKINALKKPTVNLTTVLIGRTQRNTDNIIYPEEYSSCSRHPCQNGGTCINGRTSFTCACRHPFTGDNCTIKLVEENALAPDFSKGSYRYAPMVAFFASHTYGMTIPGPILFNNLDVNYGASYTPRTGKFRIPYLGVYVFKYTIESFSAHISGFLVVDGIDKLAFESENINSEIHCDRVLTGDALLELNYGQEVWLRLAKGTIPAKFPPVTTFSGYLLYRT
Take B2: the expression_or_secretion result in data set [2] was “no change”.

B3: multimerin-1 (MMRN1): T1055A (protein)
parent chain: MKGARLFVLLSSLWSGGIGLNNSKHSWTIPEDGNSQKTMPSASVPPNKIQSLQILPTTRVMSAEIATTPEARTSEDSLLKSTLPPSETSAPAEGVRNQTLTSTEKAEGVVKLQNLTLPTNASIKFNPGAESVVLSNSTLKFLQSFARKSNEQATSLNTVGGTGGIGGVGGTGGVGNRAPRETYLSRGDSSSSQRTDYQKSNFETTRGKNWCAYVHTRLSPTVILDNQVTYVPGGKGPCGWTGGSCPQRSQKISNPVYRMQHKIVTSLDWRCCPGYSGPKCQLRAQEQQSLIHTNQAESHTAVGRGVAEQQQQQGCGDPEVMQKMTDQVNYQAMKLTLLQKKIDNISLTVNDVRNTYSSLEGKVSEDKSREFQSLLKGLKSKSINVLIRDIVREQFKIFQNDMQETVAQLFKTVSSLSEDLESTRQIIQKVNESVVSIAAQQKFVLVQENRPTLTDIVELRNHIVNVRQEMTLTCEKPIKELEVKQTHLEGALEQEHSRSILYYESLNKTLSKLKEVHEQLLSTEQVSDQKNAPAAESVSNNVTEYMSTLHENIKKQSLMMLQMFEDLHIQESKINNLTVSLEMEKESLRGECEDMLSKCRNDFKFQLKDTEENLHVLNQTLAEVLFPMDNKMDKMSEQLNDLTYDMEILQPLLEQGASLRQTMTYEQPKEAIVIRKKIENLTSAVNSLNFIIKELTKRHNLLRNEVQGRDDALERRINEYALEMEDGLNKTMTIINNAIDFIQDNYALKETLSTIKDNSEIHHKCTSDMETILTFIPQFHRLNDSIQTLVNDNQRYNFVLQVAKTLAGIPRDEKLNQSNFQKMYQMFNETTSQVRKYQQNMSHLEEKLLLTTKISKNFETRLQDIESKVTQTLIPYYISVKKGSVVTNERDQALQLQVLNSRFKALEAKSIHLSINFFSLNKTLHEVLTMCHNASTSVSELNATIPKWIKHSLPDIQLLQKGLTEFVEPIIQIKTQAALSNLTCCIDRSLPGSLANVVKSQKQVKSLPKKINALKKPTVNLTTVLIGRTQRNTDNIIYPEEYSSCSRHPCQNGGTCINGRTSFTCACRHPFTGDNCTIKLVEENALAPDFSKGSYRYAPMVAFFASHTYGMTIPGPILFNNLDVNYGASYTPRTGKFRIPYLGVYVFKYTIESFSAHISGFLVVDGIDKLAFESENINSEIHCDRVLTGDALLELNYGQEVWLRLAKGTIPAKFPPVTTFSGYLLYRT
For the protein B3, the expression_or_secretion result in data set [1] is “decreases”.

B4: multimerin-1 (MMRN1): POFUT1 KO (protein)
parent chain: MKGARLFVLLSSLWSGGIGLNNSKHSWTIPEDGNSQKTMPSASVPPNKIQSLQILPTTRVMSAEIATTPEARTSEDSLLKSTLPPSETSAPAEGVRNQTLTSTEKAEGVVKLQNLTLPTNASIKFNPGAESVVLSNSTLKFLQSFARKSNEQATSLNTVGGTGGIGGVGGTGGVGNRAPRETYLSRGDSSSSQRTDYQKSNFETTRGKNWCAYVHTRLSPTVILDNQVTYVPGGKGPCGWTGGSCPQRSQKISNPVYRMQHKIVTSLDWRCCPGYSGPKCQLRAQEQQSLIHTNQAESHTAVGRGVAEQQQQQGCGDPEVMQKMTDQVNYQAMKLTLLQKKIDNISLTVNDVRNTYSSLEGKVSEDKSREFQSLLKGLKSKSINVLIRDIVREQFKIFQNDMQETVAQLFKTVSSLSEDLESTRQIIQKVNESVVSIAAQQKFVLVQENRPTLTDIVELRNHIVNVRQEMTLTCEKPIKELEVKQTHLEGALEQEHSRSILYYESLNKTLSKLKEVHEQLLSTEQVSDQKNAPAAESVSNNVTEYMSTLHENIKKQSLMMLQMFEDLHIQESKINNLTVSLEMEKESLRGECEDMLSKCRNDFKFQLKDTEENLHVLNQTLAEVLFPMDNKMDKMSEQLNDLTYDMEILQPLLEQGASLRQTMTYEQPKEAIVIRKKIENLTSAVNSLNFIIKELTKRHNLLRNEVQGRDDALERRINEYALEMEDGLNKTMTIINNAIDFIQDNYALKETLSTIKDNSEIHHKCTSDMETILTFIPQFHRLNDSIQTLVNDNQRYNFVLQVAKTLAGIPRDEKLNQSNFQKMYQMFNETTSQVRKYQQNMSHLEEKLLLTTKISKNFETRLQDIESKVTQTLIPYYISVKKGSVVTNERDQALQLQVLNSRFKALEAKSIHLSINFFSLNKTLHEVLTMCHNASTSVSELNATIPKWIKHSLPDIQLLQKGLTEFVEPIIQIKTQAALSNLTCCIDRSLPGSLANVVKSQKQVKSLPKKINALKKPTVNLTTVLIGRTQRNTDNIIYPEEYSSCSRHPCQNGGTCINGRTSFTCACRHPFTGDNCTIKLVEENALAPDFSKGSYRYAPMVAFFASHTYGMTIPGPILFNNLDVNYGASYTPRTGKFRIPYLGVYVFKYTIESFSAHISGFLVVDGIDKLAFESENINSEIHCDRVLTGDALLELNYGQEVWLRLAKGTIPAKFPPVTTFSGYLLYRT
For B4, the expression_or_secretion entry in data set [2] is recorded as “abolishes”.
